In the DeepSol protein solubility set:

Experiment: soluble on expression in E. coli; label from the status in PepcDB or PDB records

Row | Sequence | soluble on expression in E. coli
1 | MAHHHHHHMVQEWWVSAAQEAVISRKATSRAERIVTEADDPRSGTSHFYDSDARLCLVCNARLEGSYSAHSHSVDHKPRVALLKRTIGMILTFLEQAGSSPSLPPPPESDSPYSLPGSKRFLVSVSTHTGTPAAPAPSCFHALYAESPLFAEDGVPSRALLYHRPCTLREFDLVDVIMRRWWNTLHNPPPRRGSISFDRLLSLSSAELQMRRWRVRYLLHFLKSRGVLRSCLTLRSDQVNAAPSPNERIHRGEAFERLEMVGDFFFKSLTPDRMHTVFPADEGGLTAELQCFERALDSNHGLLAIYDYLGLDDIVGCFLANNKAKADVVEAVIGELKVLLWSTEVVWGMEYYAVPGERATHVYLRALVAHTIAELGHTVLMWQLESTLRNCRDFLLKHTVEEYLGAEKGNERRASRGGDGCDVPADLPKYSPLPPLLAWNRRRLGVSMRRGEVPLASKQSRSSIPPSPQDPLRRLAPTASCIPEAIRDHYAVGRKKWSSYACKTAIQALCASLTQTALQHDSGHTADALSLNSSSASLPLSPEPQPSPTTPAYACVPRSVLRALVTANCVVIRNSAPPLARSTSTRRVAG | not soluble
2 | MAHHHHHHMWRPRRVQGLGSGEDICHLVSAVRRQGIRSLPSGLVVAAEIAYRCCSYSIESFQTDSTEAKKPSRVVGTAPTERQKRPSALAPSSSIPATEKAGIIVEWVPDALGYHLPLGLRERWEPSSKASPTEAGGLKASNDAETHGTEQQELEEVSSVGNPCASSRVGDGGGGSGHRSGHSDGPPFYGPLPNFATSPVFEWERCLWQWRPVKITPAAGTPHHTSLTVTAPISSSGEKRPLRDEMHCSDGGENDLAEGGLGESSQVYHLVPFLLCPTLEVCATQPLMHGSLRKELAAAQNACHHLRRSWPEDAKQDLLGTRRCPTYSEHETRLWSITIPTPVGELALSSPQDTDGDDANKQNTMLDLPTFAMIEGEPPMRVGGRIRACCGHGITSPAPPEAETWEAATAAARNERSTSAGNAAVPYVHVFCSEMSAACSDSLLSQTGIKASELPTPSSCDVSSPTLPLTRRNVVGGGLAELILAVDRYAALIARGDLALSAACWATLCDTKSWWVVQRLRVCPLEMERELVAATEAHKLWQQYAVSRNSTLVGKSSHGICFYDYPFLAKWPLGRQAATKATAPIRAHTRWRV | not soluble
3 | MAHHHHHHMYNPALPNHYRGVVFAAYVRRRQREEAAAAQQQRQPNALASALSASSLAAPSMASVTAPLLGLSAEELHQHRIKESAALGIQRAVMMEKEALEVEHKKRKLEGSDARSRISSRLDKLKALAAKSKAVTGVSASLDAGDAILQAGGPSSPTSSQRTSSSSFDAEAAPSAPLVFQRSSLAAGGYVMAAADPSLPGMLLRTKTRSAVQGKPSSTLLLRFLHDSPVLGWKEAAIAEASTLSSAESSLCAPVLSQVQQLCRRFGFVRSMAAHVYAEDVVTAALARARSQTSAETQVPSAEAVRREQLRVWVRFDSVTEAFKAAESLAKEVSPATPAGRPVFAVAFYPTGLYDSGALELREEDLLSPSA | not soluble
4 | MAHHHHHHMYYIYFENVKDEKEKKECEEFIYQIYMMENIKKDAILKLKNEKNENLYLLYLYYKYYYMNDKENVLNEIKQLNTSSCNANILKSRIFFDNDLLDECFDLLENGTIEIKAAKIFFLLNINRQDIVNEIIKDFLHMNEEIPIIKIVLAIYYLFNDNNKESFLIFDDLESLYGSMINDHSNIILNGKAVASILNYEFNDAKEFLKNQINNGDILYNLITCSLYLYELDEANEYLTKLYDNYSSHDSLKVLKKIDDEVDNFVSEF | not soluble
5 | MAHHHHHHSLALIVKIGGSIQKDEKDYELIVKKIQDFSKKSDKIIVVTSAIKNVTNELISATSNTDNSPNIVTEIYERHIKLLSKLADGKEFENSFKDISRLSDELFRVAWSIRVLDEVTPRVRDYILSFGERMATLLLSAILRSNGIEAEGIITPPFLTDENYGEANVIEDLSKNEIANILENAKANVIVLPGFIGRTREGRYTTLGRGGSDYTATLLGKLVGVREVRLVTEVPGIMTGDPKKFENAKTISRLSLEEAIELSQLGAKRLHPRTFDPVFGSDMKVIVESLYEDGFTIINGECQNNDGLKGISLLDNAKLITVESTKIVGKIGSAARITNEAKEAGVNIISISQPASETTIQLVVDSLSANRLLSKLEEIRGTLVKDIEVNDINIVGIVGCGIKKKEISTKVLSIASSYDPLAISRGISNVSMTFIVNKDEGEKLAKELHKVIVSGEG | soluble
6 | MAHHHHHHSLIQAVLFDLDGTLADTALDLGGALNTLLARHGLPAKSMDEIRTQASHGAAGLIKLGAGITPDHPDYARWRTEYLDEYDSRYAQDTTLFDGVNELIAELGKRGIKWGIITNKPMRFTDKLVPKLGFIIPPAVVVSGDTCGEPKPSVKPMLYACGQIHADPQHTLYVGDAERDIQAGRNAGMTTVLAEWGYIAPEDDTGSWQADFHIRTPLDLLECLDKIQPEG | soluble
